PMC12770486

Tests used:
RAD51 [1] = target: T1, RAD51 (Homo sapiens, UniProt Q06609 1-339); test: BLI
RAD51 [2] = target: T1, RAD51; test: FLIM

T1 sequence (Q06609 whole entry): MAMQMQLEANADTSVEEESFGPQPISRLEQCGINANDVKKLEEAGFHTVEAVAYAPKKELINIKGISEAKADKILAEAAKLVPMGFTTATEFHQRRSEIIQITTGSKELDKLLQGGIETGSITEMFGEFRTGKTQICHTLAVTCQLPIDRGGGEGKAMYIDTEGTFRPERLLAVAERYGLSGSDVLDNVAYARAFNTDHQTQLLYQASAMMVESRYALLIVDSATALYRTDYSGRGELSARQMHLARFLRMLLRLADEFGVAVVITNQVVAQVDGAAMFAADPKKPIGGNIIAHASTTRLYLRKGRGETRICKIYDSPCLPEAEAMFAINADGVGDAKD

Binder	Kd (RAD51 [1])	further results
CGGGCGGGCGGG (ssDNA) [Apt5]	936 ± 39 nM	
GCCCCGCCCCGCCCC (ssDNA) [rcApt]		binding result (RAD51 [1]): no binding
CGGCGCGGCGCGGCG (ssDNA) [Apt3]	188 ± 13 nM	
GGGGCGGGGCGGGGC (ssDNA) [Apt1]	116 ± 14 nM	
GCCCCGCCCCGCCCC (ssDNA, locked bases at both ends stated for in-cell assays; unclear for FLIM) [rcApt Texas Red]		binding result (RAD51 [2]): no binding
GCGGGGGCGGGG (ssDNA) [Apt4]	413 ± 11 nM	
GGGGCGGGGCGGGGC (ssDNA, locked bases at both ends stated for in-cell assays; unclear for FLIM) [Apt1 Texas Red]		binding result (RAD51 [2]): binds
GGGGGGGGGGGGGGG (ssDNA) [Apt2]	138 ± 4 nM	
